Test results: paper PMC3519819

Target: IscS fused with the bait protein (pBT-IscS, pJTU3618) (E. coli), P0A6B7
Experiment: two-hybrid; BacterioMatch II bacterial two-hybrid; IscS on pBT (bait), Dpt proteins on pTRG (target); reporter strain E. coli XL1-Blue MRF' Kan; colonies counted on Selective Screening Medium with 5 mM 3-AT against nonselective medium, 24 h at 37°C
Details: remark: other sources report otherwise

Chain of IscS fused with the bait protein (pBT-IscS, pJTU3618) (E. coli), P0A6B7 (P0A6B7 whole entry, the tested form may be a part): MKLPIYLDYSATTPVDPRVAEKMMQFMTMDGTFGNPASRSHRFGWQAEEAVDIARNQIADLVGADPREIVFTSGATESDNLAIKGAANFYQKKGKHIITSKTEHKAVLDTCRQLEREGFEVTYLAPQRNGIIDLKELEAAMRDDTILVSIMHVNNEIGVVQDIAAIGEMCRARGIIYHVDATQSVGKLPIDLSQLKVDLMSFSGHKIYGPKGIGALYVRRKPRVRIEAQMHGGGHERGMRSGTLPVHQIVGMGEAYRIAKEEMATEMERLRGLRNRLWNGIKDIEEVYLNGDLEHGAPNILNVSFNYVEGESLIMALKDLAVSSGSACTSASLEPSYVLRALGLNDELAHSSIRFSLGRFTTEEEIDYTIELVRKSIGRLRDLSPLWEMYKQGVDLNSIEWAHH

B1: DptC fused with the target protein (pTRG-DptC, pJTU3610), E2D677 1-544 (natural protein)
chain: MSKLVQAYDLAEYEDFINQEQFAGRPLAEYVAEVQRIYCADKRPWVIGYSGGKDSSAVITLVYLALLGLPPEMRSKDVFIVSSDTLVETPVVVDLIKKTMLQIEAGAKRNGLPITQHAVTPKTNETFWVNLLGKGYPAPTRSFRWCTERMKINPVSDFIKDKVSQFDEVIVVLGSRSSESASRAQVIAKHKIDGSRLARHTTLANAFIYTPIDTWDVEDVWKLLRGAFRYAPEDIDEWESPWGGNNRPLWTLYMDSSAQGECPLVIDESTPSCGNSRFGCWTCTVVTKDKAMESLIKNGEEWMSPLLKYRDLLAFTTDPANKDTYRNYKRRTGKVSYQYAKDGEDRSAERKHVPGPYWLKYRQQWLKDLLEIERDLNAQGHTITLITQPELHAIRQEWLKDPNEPDWHDTLPEIYREVYQQDLNWVVDDQSRFDASDADLLAQITQGFDVVPEMVMKLIELETSMEGLSRRQGIFDKLGTILKQDWGSLEEIQQQQATLQKRNDRDIHQDEVEKLEAELQTLQRRIIDAGESSVLIDEENERAH
surviving cells on 3AT: 2%
